The text below walks through data of publication doi:10.1101/2023.02.09.527835 (bioRxiv, 2023).

In the experiment the target is human complement C3a (human, UniProt P01024 672-748). As to the kind of experiment: cryo-EM structure.
Sequence of human complement C3a (P01024 672-748): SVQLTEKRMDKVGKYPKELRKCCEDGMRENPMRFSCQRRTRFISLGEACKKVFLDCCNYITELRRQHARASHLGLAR

B1: human complement C3a receptor (C3aR), full-length, FLAG-M4(2-23)-C3aR construct for cryo-EM (receptor, UniProt P08173 2-23, looked up)
chain: ANFTPVNGSSGNQSVRLVTSSSMASFSAETNSTDLLSQPWNEPPVILSMVILSLTFLLGLPGNGLVLWVAGLKMQRTVNTIWFLHLTLADLLCCLSLPFSLAHLALQGQWPYGRFLCKLIPSIIVLNMFASVFLLTAISLDRCLVVFKPIWCQNHRNVGMACSICGCIWVVAFVMCIPVFVYREIFTTDNHNRCGYKFGLSSSLDYPDFYGDPLENRSLENIVQPPGEMNDRLDPSSFQTNDHPWTVPTVFQPQTFQRPSADSLPRGSARLTSQNLYSNVFKPADVVSPKIPSGFPIEDHETSPLDNSDAFLSTHLKLFPSASSNSFYESELPQGFQDYYNLGQFTDDDQVPTPLVAITITRLVVGFLLPSVIMIACYSFIVFRMQRGRFAKSQSKTFRVAVVVVAVFLVCWTPYHIFGVLSLLTDPETPLGKTLMSWDHVCIALASANSCFNPFLYALLGKDFRKKARQSIQGILEAAFSEELTRSTHCPSNNVISERNSTTV
modifications: alkylated with iodoacetamide
For the molecule B1, the binding result was “binds”.
